A word on the Kd: it is the equilibrium constant for the complex coming apart. Higher therefore signals lower affinity.

The target of this assay is T1, Prostate-Specific Antigen (PSA) (human, UniProt P07288 25-261).
T1 construct: Used biotinylated or PE-labelled in flow cytometry and coated on plates in ELISA; also called PSA antigen
Put plainly: method and antibody format not stated.

T1 sequence (P07288 25-261 limits assumed): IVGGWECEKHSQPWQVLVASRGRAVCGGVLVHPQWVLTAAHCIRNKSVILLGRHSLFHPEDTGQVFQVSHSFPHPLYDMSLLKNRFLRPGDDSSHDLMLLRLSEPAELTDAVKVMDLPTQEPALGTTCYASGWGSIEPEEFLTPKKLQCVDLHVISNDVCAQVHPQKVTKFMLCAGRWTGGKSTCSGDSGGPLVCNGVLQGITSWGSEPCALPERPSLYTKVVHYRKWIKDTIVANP

B1: novel anti-PSA antibody (antibody, V domains shown)
VH: EVQLLESGGGLVQPGGSLRLSCAASGFTVSNYAMSWVRQAPGKGLEWVGDIYPTSGYTDYADSVKGRFTISRDNSKNTLYLQMNSLRAEDTAVYYCARWGYDYKYVASEGSWLFDYWGQGTLVTVSS
VL: DIQMTQSPSSLSASVGDRVTITCRASQVSSTSLNWYQQKPGKAPKLLIYGASNLASGVPSRFSGSGSGTDFTLTISSLQPEDFATYYCQQYGHPPYTFGQGTKVEIK
notes: Identified from a single chain library
Molecule B1 displayed a Kd of 0.08 nM.

The values above are taken from patent US20160304856A1 (AVANTGEN, published 2016).
